The values below come from paper PMC2561144 (Journal of Experimental Botany, 2008).

Assay [1] has as its target T1, MYA2 tail 2, aa1049-aa1450, fused with GST (Arabidopsis thaliana, UniProt Q9LKB9 1049-1450).
T1 sequence: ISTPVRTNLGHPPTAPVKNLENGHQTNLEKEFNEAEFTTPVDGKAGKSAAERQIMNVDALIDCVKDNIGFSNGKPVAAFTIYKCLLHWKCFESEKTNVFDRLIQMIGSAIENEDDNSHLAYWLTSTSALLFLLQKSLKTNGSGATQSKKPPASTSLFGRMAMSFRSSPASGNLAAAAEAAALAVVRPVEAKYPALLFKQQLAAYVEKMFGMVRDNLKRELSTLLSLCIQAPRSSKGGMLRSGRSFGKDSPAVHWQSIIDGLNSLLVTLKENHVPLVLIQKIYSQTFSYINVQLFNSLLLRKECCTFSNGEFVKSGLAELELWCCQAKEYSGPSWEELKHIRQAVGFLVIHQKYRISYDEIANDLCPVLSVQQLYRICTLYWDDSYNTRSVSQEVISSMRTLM
Kind of assay: pull-down.

Assay [2] concerns the target T2, MYA2 tail 1, aa1049-aa1505, fused with GST (Arabidopsis thaliana, UniProt Q9LKB9 1049-1505).
T2 sequence: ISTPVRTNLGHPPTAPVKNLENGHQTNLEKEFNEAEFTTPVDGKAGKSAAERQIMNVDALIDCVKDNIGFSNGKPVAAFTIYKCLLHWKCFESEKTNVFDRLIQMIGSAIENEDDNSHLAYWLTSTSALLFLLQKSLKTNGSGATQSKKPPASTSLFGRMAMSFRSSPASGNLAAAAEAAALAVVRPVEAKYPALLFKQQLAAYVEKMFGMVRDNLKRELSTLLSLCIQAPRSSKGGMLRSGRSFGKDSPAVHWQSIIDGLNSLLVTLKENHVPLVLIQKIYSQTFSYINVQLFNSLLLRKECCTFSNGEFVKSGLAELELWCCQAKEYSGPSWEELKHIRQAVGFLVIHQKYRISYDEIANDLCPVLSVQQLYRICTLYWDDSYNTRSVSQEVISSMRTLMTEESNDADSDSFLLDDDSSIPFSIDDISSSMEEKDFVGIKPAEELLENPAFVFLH
Kind of assay: pull-down.

B1: His6-AtRabD1 (natural protein)
chain: not shown
Take B1: the “fold amount bound with GTP over that without GTP or on control beads” value in assay [1] came to 1.6 fold; in assay [2], 2.6 fold.

B2: His6-AtRabC2a (natural protein)
chain: MGSSSGQSGYDLSFKILLIGDSGVGKSSLLVSFISSSVEDLAPTIGVDFKIKQLTVGGKRLKLTIWDTAGQERFRTLTSSYYRGAQGIILVYDVTRRETFTNLVDVWGKEIELYSTNQECVRMLVGNKVDRESERGVSREEGIALAKELNCMFLECSARTRQNVEQCFEELALKIMEVPSLLEEGSSAVKRNILKQKPEHQTNTQSGCCS
Regarding B2, in assay [2], the “fold amount bound with GTP over that without GTP or on control beads” value stood at 1.7 fold.
